Assay results published in publication PMC5108336, “Tubular epithelial cells in renal clear cell carcinoma express high RIPK1/3 and show increased susceptibility to TNF receptor 1-induced necroptosis” (Cell Death & Disease, 2016).

T1: Mixed lineage kinase domain-like phosphorylated at Serine 358 (human (endogenous in RCC and kidney …, UniProt Q8NB16 1-471, phosphoserine at 358))
T1 construct: also called pMLKL^Ser358; phospho-MLKL^Ser358; source: endogenous, organ cultures of human RCC grade 1 and adjacent non-tumor kidney (tissue sections)
T1 sequence (looked up): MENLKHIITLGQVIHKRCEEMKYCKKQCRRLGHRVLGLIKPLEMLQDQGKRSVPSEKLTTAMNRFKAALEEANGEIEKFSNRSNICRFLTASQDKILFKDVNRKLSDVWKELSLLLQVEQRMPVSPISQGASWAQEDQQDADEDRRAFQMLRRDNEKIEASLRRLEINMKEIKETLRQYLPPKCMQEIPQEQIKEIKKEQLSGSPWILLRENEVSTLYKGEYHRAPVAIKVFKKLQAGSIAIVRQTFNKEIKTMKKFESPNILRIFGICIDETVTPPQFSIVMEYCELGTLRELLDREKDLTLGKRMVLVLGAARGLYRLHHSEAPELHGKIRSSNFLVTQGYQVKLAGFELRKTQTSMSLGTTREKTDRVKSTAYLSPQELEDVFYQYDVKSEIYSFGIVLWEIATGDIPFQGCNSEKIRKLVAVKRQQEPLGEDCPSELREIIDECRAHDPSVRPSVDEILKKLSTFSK

B1: receptor-interacting protein kinase 3 (natural protein, UniProt Q9Y572-1 1-518, looked up)
chain: MSCVKLWPSGAPAPLVSIEELENQELVGKGGFGTVFRAQHRKWGYDVAVKIVNSKAISREVKAMASLDNEFVLRLEGVIEKVNWDQDPKPALVTKFMENGSLSGLLQSQCPRPWPLLCRLLKEVVLGMFYLHDQNPVLLHRDLKPSNVLLDPELHVKLADFGLSTFQGGSQSGTGSGEPGGTLGYLAPELFVNVNRKASTASDVYSFGILMWAVLAGREVELPTEPSLVYEAVCNRQNRPSLAELPQAGPETPGLEGLKELMQLCWSSEPKDRPSFQECLPKTDEVFQMVENNMNAAVSTVKDFLSQLRSSNRRFSIPESGQGGTEMDGFRRTIENQHSRNDVMVSEWLNKLNLEEPPSSVPKKCPSLTKRSRAQEEQVPQAWTAGTSSDSMAQPPQTPETSTFRNQMPSPTSTGTPSPGPRGNQGAERQGMNWSCRTPEPNPVTGRPLVNIYNCSGVQVGDNNYLTMQQTTALPTWGLAPSGKGRGLQHPPPVGSQEGPKDPEAWSRPQGWYNHSGK
notes: Detected in situ by an anti-RIPK3 antibody; also called RIPK3; source: endogenous, organ cultures of human RCC grade 1 and adjacent non-tumor kidney (tissue sections)

How the values were obtained:
[1] = target: B1; assay: proximity ligation; in situ PLA (Duolink In Situ Detection Reagents Red) on sections of organ cultures of RCC grade 1 and adjacent non-tumor kidney (NK), untreated (UT) or treated with wtTNF (10 ng/ml), R1TNF or R2TNF (1 ug/ml) for 3 h at 37 °C; signal when two proteins are closer than 40 nm; red spots counted in mTECs in 10 random fields at x40; conditions: partners not purified
[2] = target: T1, Mixed lineage kinase domain-like …; assay: as above; conditions: partners not purified

| Binder | fold increase of PLA signal with R1TNF over untreated (non-tumor kidney organ culture) [1] | fold increase of PLA signal with R1TNF over untreated (non-tumor kidney organ culture) [2] |
| --- | --- | --- |
| receptor-interacting protein kinase 1 (natural protein, UniProt Q13546-1 1-671, looked up, Detected in situ by an anti-RIPK1 antibody; also called RIPK1; source: endogenous, organ cultures of human RCC grade 1 and adjacent non-tumor kidney (tissue sections)) MQPDMSLNVIKMKSSDFLESAELDSGGFGKVSLCFHRTQGLMIMKTVYKGPNCIEHNEALLEEAKMMNRLRHSRVVKLLGVIIEEGKYSLVMEYMEKGNLMHVLKAEMSTPLSVKGRIILEIIEGMCYLHGKGVIHKDLKPENILVDNDFHIKIADLGLASFKMWSKLNNEEHNELREVDGTAKKNGGTLYYMAPEHLNDVNAKPTEKSDVYSFAVVLWAIFANKEPYENAICEQQLIMCIKSGNRPDVDDITEYCPREIISLMKLCWEANPEARPTFPGIEEKFRPFYLSQLEESVEEDVKSLKKEYSNENAVVKRMQSLQLDCVAVPSSRSNSATEQPGSLHSSQGLGMGPVEESWFAPSLEHPQEENEPSLQSKLQDEANYHLYGSRMDRQTKQQPRQNVAYNREEERRRRVSHDPFAQQRPYENFQNTEGKGTAYSSAASHGNAVHQPSGLTSQPQVLYQNNGLYSSHGFGTRPLDPGTAGPRVWYRPIPSHMPSLHNIPVPETNYLGNTPTMPFSSLPPTDESIKYTIYNSTGIQIGAYNYMEIGGTSSSLLDSTNTNFKEEPAAKYQAIFDNTTSLTDKHLDPIRENLGKHWKNCARKLGFTQSQIDEIDHDYERDGLKEKVYQMLQKWVMREGIKGATVGKLAQALHQCSRIDLLSSLIYVSQN | ~3 fold |  |
| B1 |  | ~2.5 fold |
